# Results published in patent publication US7060677B1, “Antimicrobial activity of the first cationic cluster of human lactoferrin” (priority 1999, dated 2006).
# “Also recorded” adds a separate entry of the source. Marks after values point to notes of the source that are not given here.
# B1: hLF: Natural human lactoferrin (Mr 77,000) purified from the fresh milk of a single donor, N-terminus intact; SEQ ID NO:1 (protein, listed as Homo sapiens)
# chain: GRRRRSVQWCAVSQPEATKCFQWQRNMRKVRGPPVSCIKRDSPIQCIQAIAENRADAVTLDGGFIYEAGLAPYKLRPVAAEVYGTERQPRTHYYAVAVVKKGGSFQLNELQGLKSCHTGLRRTAGWNVPIGTLRPFLNWTGPPEPIEAAVARFFSASCVPGADKGQFPNLCRLCAGTGENKCAFSSQEPYFSYSGAFKCLRDGAGDVAFIRESTVFEDLSDEAERDEYELLCPDNTRKPVDKFKDCHLARVPSHAVVARSVNGKEDAIWNLLRQAQEKFGKDKSPKFQLFGSPSGQKDLLFKDSAIGFSRVPPRIDSGLYLGSGYFTAIQNLRKSEEEVAARRARVVWCAVGEQELRKCNQWSGLSEGSVTCSSASTTEDCIALVLKGEADAMSLDGGYVYTAGKCGLVPVLAENYKSQQSSDPDPNCVDRPVEGYLAVAVVRRSDTSLTWNSVKGKKSCHTAVDRTAGWNIPMGLLFNQTGSCKFDEYFSQSCAPGSDPRSNLCALCIGDEQGENKCVPNSNERYYGYTGAFRCLAENAGDVAFVKDVTVLQNTDGNNNEAWAKDLKLADFALLCLDGKRKPVTEARSCHLAMAPNHAVVSRMDKVERLKQVLLHQQAKFGRNGSDCPDKFCLFQSETKNLLFNDNTECLARLHGKTTYEKYLGPQYVAGITNLKKCSTSPLLEACEFLRK
# Columns and labels:
# bacteria [1] = assay: Assay for membrane permeability (propidium iodide, FACS), bacteria in general; type: cell-based
# Method: (§1) Changes in the membrane permeability of bacteria upon exposure to hLF, hLF^−3N and related peptides were monitored after incubation with propidium iodide (PI; Sigma), using FACS analysis (12, 20). Stock solutions of PI (1 mg/ml of deionized water) were prepared. Approximately 2×10^6 bacteria/ml of PBS-Tw were incubated for various intervals at 37° C., washed, incubated for 5 min with 1 μg of PI/ml (final concentration) and then analyzed with a FACScan (Becton & Dickinson, CA) equipped with a argon-laser at 488 nm. The photomultiplier voltages were routinely set at 500 V for PI fluorescence intensity in the second channel. Data acquisition and analysis were controlled using the Lysis II software.
# [2] = tested on: the various bacteria (L. monocytogenes, antibiotic resistant S. aureus, K. pneumoniae, E. coli); assay: Assay for antibacterial activity, statements on the various bacteria together; type: cell-based
# Method: (§2) Listeria monocytogenes strain EGD. Klebsiella pneumoniae (43816), and Escherichia coli O54 were purchased from the American Type Culture Collection (Rockville, Md.). Antibiotic resistant S. aureus, K. pneumoniae and E. coli were cultured overnight in nutrient broth (Oxoid, Basingstoke, UK) at 37° C., diluted in tryptase soya broth (TSB, Oxoid) and cultured for an additional 2 h in a shaking waterbath at 37° C. L. monocytogenes was cultured overnight in brain heart infusion broth (BHI, Oxoid) at 37° C. diluted and cultured for an additional 2 h in a shaking waterbath at 37° C.
# (§3) In short, bacteria were washed with phosphate-buffered saline (PBS) (pH 7.4) and diluted to a concentration of approximately 2×10^6 CFU/ml of phosphate-buffered saline (pH 6.0) supplemented with 0.1% (v/v) Tween-20 (hereafter designated as PBS-Tw). […] At various time intervals (range 0–4 h) after incubation at 37° C. the number of viable bacteria was determined microbiologically. As negative controls, bovine serum albumin (BSA; Sigma) or no peptide were included.
# L. monocytogenes [3] = assay: Assay for antibacterial activity (in vitro killing, viable count); type: cell-based, Listeria monocytogenes strain EGD; settings: for CFU of bacteria, L. monocytogenes: 4 μM protein, approx. 1 × 10^6 CFU, PBS-Tw (pH 6.0), 3 h at 37° C., mean ± SD of 3–5 experiments
# Method: as §2, §3
# bacteria [4] = assay: Assay for non-specific esterase activity (SFDA, FACS), bacteria in general; type: cell-based
# L. monocytogenes [5] = assay: Assay for non-specific esterase activity (SFDA, FACS); type: cell-based, Listeria monocytogenes; settings: within 1–2 hours after addition; FIG. 4: 4 μM
# Method: (§4) As an indication of intracellular effects of hLF, hLF^−3N and related peptides (e.g., hLF (1–11) and hLF(21–31) in bacteria, the non-specific esterase activity of bacteria upon exposure to these antimicrobial proteins/peptides was assessed using 5-sulfofluorescein diacetate (SFDA; Molecular Probes, Leiden, The Netherlands) and FACS analysis (21). For these experiments, a stock solution of SFDA (1 mg/ml of ethanol) was prepared. Approximately 2×10^6 CFU of bacteria/ml of PBS-Tw were incubated with various concentrations of hLF, hLF^−3N and hLF related peptides for various intervals at 37° C., washed, incubated with 100 μM of SFDA/ml (final concentration ethanol 20% v/v) for 20 min at room temperature in the dark and then analyzed with a FACScan using the photomultiplier voltage of the first channel set at 700 V.
# E. coli [6] = assay: Assay for membrane permeability (propidium iodide, FACS); type: cell-based, Escherichia coli; settings: period of analysis 4 h after addition of the protein
# Method: as §1
# [7] = tested on: antibiotic resistant S. aureus; assay: Experimental thigh muscle infection; type: in vivo, mice; settings: FIG. 5
# Method: In short, specific pathogen-free, male. Swiss mice weighing 20–25 g (Broekman Institute, Someren, The Netherlands) were anaesthetized with a single intraperitoneal injection of 0.1 ml of saline containing 1 mg fluanisone and 0.03 mg fentanyl citrate (Hypnorm, Janssen Pharmaceutics, Tilburg, The Netherlands). Preceding scintigraphy, a subcutaneous injection of 0.1 ml, containing 0.2 mg diazepam (Valium, Hoffmann-La Roche, Mijdrecht, The Netherlands) was administered. […] As a control, mice were injected with 0.2 ml of saline containing BSA or saline without any peptide. […] Next, the infected thigh muscles were removed and, after weighing, homogenized in 4 ml of PBS. Appropriate dilutions of the homogenates were applied onto diagnostic sensitivity test plates (Oxoid), and the number of colonies counted after an overnight culture at 37° C. Results are expressed as the number of CFUs per gram of infected tissue.
# E. coli [8] = assay: Assay for non-specific esterase activity (SFDA, FACS); type: cell-based, Escherichia coli; settings: within 1–2 hours after addition
# Method: as §4
# [9] = Pharmacology of 99mTc-labeled hLF and peptides by scintigraphy in infected mice; settings: mouse, in vivo
# Method: Lactoferrins and related peptides were labeled with ^99mTechnetium (^99mTc) as described (22, 23). Briefly, 10 μl of a peptide solution (1 mg/ml of HAc) was added to 2 μl of an aseptic solution of 0.5 mg of stannous pyrophosphate/ml (Dept. of Clinical Pharmacy and Toxicology. Leiden University Medical Center (LUMC). Leiden. The Netherlands). Immediately thereafter, 4 μl of a solution of 10 mg of KBH4 (crystalline. Sigma) per ml of 0.1 M NaOH was added. After addition of 0.1 ml of ^99mTc-sodium pertechnetate solution (200 MBq/ml. Mallinckrodt Medical BV, Petten, The Netherlands), the mixture was gently stirred at ambient temperature for 30 min and then was ready for use. Quality control of the labeling was performed by RP-HPLC analysis using a Sep-Pak C18 cartridge (Waters, Milford, Mass.) in 20 ml of 0.01 M HAc. After rinsing with 20 ml of 0.01 M HAc, proteins and peptides were eluted with 2 ml of methanol (Sigma). […]
# On the scintigrams, anatomically adjusted regions of interest (ROI) were drawn over the various organs and both thighs providing data about clearance of ^99mTc-peptides and accumulation at the site of infection. […] The amount of radioactivity in the heart was corrected for decay and expressed as a percentage of injected dose (% ID).
# L. monocytogenes [10] = assay: Assay for membrane permeability (propidium iodide, FACS); type: cell-based, Listeria monocytogenes; settings: period of analysis 4 h after addition of the protein
# Method: as §1
# K. pneumoniae = assay: Assay for antibacterial activity (in vitro killing, viable count); type: cell-based, Klebsiella pneumoniae (43816)
# Method: as §2, §3
# [11] = tested on: antibiotic resistant S. aureus; assay: as above; type: cell-based, Staphylococcus aureus strain 2141; settings: for CFU of bacteria, antibiotic resistant S. aureus: 4 μM protein, approx. 1 × 10^6 CFU, PBS-Tw (pH 6.0), 3 h at 37° C., mean ± SD of 3–5 experiments
# Method: as §2, §3
# E. coli [12] = assay: as above; type: cell-based, Escherichia coli O54; settings: for CFU of bacteria, E. coli: 4 μM protein, approx. 1 × 10^6 CFU, PBS-Tw (pH 6.0), 3 h at 37° C., mean ± SD of 3–5 experiments
# Method: as §2, §3
molecule,measurement,setting,value
B1,"Membrane permeability of the bacteria, proteins (conclusions)",bacteria [1],without affecting
same,"Speed of killing these bacteria, natural hLF compared with hLF^−3N","[2]; 4 μM, FIGS. 1C–1E, p<0.05",faster (p<0.05) than hLF^−3N
same,Effect on the number of viable bacteria at 4° C.,[2]; 4° C.,no affect; also recorded: not able to kill bacteria
same,"Potency in killing, natural hLF compared with hLF^−3N","[2]; dose-dependent killing, FIGS. 1A–1B, p<0.05",more potent (p<0.05) than hLF^−3N
same,"CFU of bacteria, L. monocytogenes",L. monocytogenes [3],"2.4 ± 0.9 × 10^4*^,** CFU"
same,"CFU of bacteria, L. monocytogenes",L. monocytogenes [3]; listed as hLF^3N,4.8 ± 2.4 × 10^5 CFU
same,Killing of L. monocytogenes by the protein (in words),"L. monocytogenes [3]; dose-dependent, FIGS. 1A–1E",killed
same,Non-specific esterase activity of the bacteria (conclusions),bacteria [4],inhibited
same,Effect on the non-specific esterase activity at 4° C.,bacteria [4]; 4° C.,no affect; also recorded: not able
same,Intracellular non-specific esterase activity of L. monocytogenes,L. monocytogenes [5],inhibited
same,Change of the membrane permeability of E. coli,E. coli [6],not followed by a significant change
same,Amount at which maximum effects on viable bacteria were seen,"[7]; mice infected with antibiotic resistant S. aureus, 24 h after injection",1 nmol
same,Number of viable bacteria in mice infected with antibiotic resistant S. aureus,"[7]; within 24 h after intravenous injection, thigh muscle",reduced in a dose-dependent fashion
same,Intracellular non-specific esterase activity of E. coli,E. coli [8],not
same,"Amount at the site of infection, hLF compared with hLF^−3N",[9],did not differ
same,mean t1/2 of removal from the circulation,[9],approximately 19 min
same,Change of the membrane permeability of L. monocytogenes,L. monocytogenes [10],not followed by a significant change
same,"CFU of bacteria, K. pneumoniae","K. pneumoniae; 4 μM protein, approx. 1 × 10^6 CFU, PBS-Tw (pH 6.0), 3 h at 37° C., mean ± SD of 3–5 experiments, listed as hLF^3N",6.8 ± 1.5 × 10^5 CFU
same,Killing of K. pneumoniae by the protein (in words),"K. pneumoniae; dose-dependent, FIGS. 1A–1E",killed
same,"CFU of bacteria, antibiotic resistant S. aureus",[11],"6.9 ± 2.1 × 10^4*^,** CFU"
same,"CFU of bacteria, antibiotic resistant S. aureus",[11]; listed as hLF^3N,5.6 ± 1.9 × 10^5 CFU
same,Killing of antibiotic resistant S. aureus by the protein (in words),"[11]; dose-dependent, FIGS. 1A–1E",killed
same,"CFU of bacteria, E. coli",E. coli [12],3.0 ± 0.3 × 10^6 CFU
same,"CFU of bacteria, E. coli",E. coli [12]; listed as hLF^3N,9.5 ± 8.2 × 10^5 CFU
same,Killing of E. coli by the protein (in words),"E. coli [12]; Table 1, even at concentrations up to 12 μM",not killed
